Drawing on patent publication US20130190228A1, this text covers EC50 of hemagglutination inhibition (PR/8), EC50 of hemagglutination inhibition (PR/8, 64 HAU) and plaque reduction on MDCK cells (PR/8 pre-treated with peptide) for one substance.

In this assay the target is hemagglutinin (HA) of A/PuertoRico/8/34 (PR/8, H1N1) influenza virus (influenza A virus A/PuertoRico/8/34 (H1N1)) (UniProt P03452). In words: cell-based or functional assay.

For the substance EB peptide (entry blocker), the EC50 of hemagglutination inhibition (PR/8) was 2 µM; the EC50 of hemagglutination inhibition (PR/8, 64 HAU) was found to be 2.6 µM; the plaque reduction on MDCK cells (PR/8 pre-treated with peptide) is 92%.
